Series [1] concerns trypsin and chymotrypsin. Nature of the series: Trypsin + chymotrypsin assay (pNA release, absorbance at 405 nm). The series is classed as biochemical. The conditions noted are these: for absorbance increase at 405 nm (pNA release): trypsin + chymotrypsin. Here is the method: Stock solutions of enzymes were prepared by dissolving trypsin (60 mg/ml) in 1 mM HCl and chymotrypsin (60 mg/ml) in pH 7.4 0.035M HEPES+0.1M NaCl. The peptide substrate, (Ac-AAF)K-pNA, was dissolved in DMSO to make a 1 mM stock solution.
(§1) To wells in a 96-well plate, 87.5 μL pH 7.4 0.035M HEPES+0.1M NaCl and 2.5 μL peptide substrate were added. Absorbance was measured using a plate reader at 405 nm. Then, 5 μL trypsin and 5 μL chymotrypsin were added to the wells, and absorbance was measured at pre-determined time points. Absorbance values were subtracted from initial reading of only buffer and peptide. When testing only one enzyme, 5 μL buffer were added to keep total volume per well at 100 μL. All conditions prepared and measured in triplicate.
as §1, with “Stock solutions of enzymes were prepared by dissolving trypsin (60 mg/ml) in 1 mM HCl and chymotrypsin (60 mg/ml) in pH 7.4 0.035M HEPES+0.1M NaCl. The peptide substrate, (Ac-AAF)K-pNA, was dissolved in DMSO to make a 1 mM stock solution. To” for “To”, “were” for “prepared and”

Another series relates to caspase 3 and trypsin. Nature of the series: Caspase 3 + trypsin assay (pNA release, absorbance at 405 nm). The format is biochemical. Here is the method: (§2) Caspase 3 was taken directly from stock solution containing 1000 U/μL. A stock solution of trypsin was prepared by dissolving the enzyme (5 mg/ml) in 1 mM HCl. The peptide substrates were dissolved in DMSO to make 10 mM solutions. These were then diluted to 2.5 mM with pH 7.5 0.1 M HEPES containing 10 mM DTT, 2 mM EDTA, and 10% v/v glycerol. In a 96-well plate, 84 μL of buffer and 5 μL peptide were mixed together before measuring the absorbance at 405 nm to serve as a blank. 1 μL caspase-3 was added, and the plate was incubated at 23° C. for 12-24 hours and absorbance was measured again. Then, 5 μL trypsin were added to the well and absorbance measurements were taken at pre-determined time points. All conditions prepared and measured in triplicate. The same protocol was used for caspase 8 assays, adjusting peptide substrate concentration as needed.

The test system of a further series is caspase 8 and trypsin. The series can be described thus: Caspase 8 + trypsin assay (pNA release, absorbance at 405 nm). The series is classed as biochemical. The conditions noted are these: for cleavage by caspase 8 (absorbance increase): caspase 8 only, commercial single enzyme substrates. Here is the method:
as §2

The subject of a further series is papain and trypsin. Nature of the series: Papain + trypsin assay (pNA release, absorbance at 405 nm). The format is biochemical. The procedure: Papain was reconstituted in deionized water at a concentration of 1 mg/ml. A stock solution of trypsin was prepared by dissolving the enzyme (10 mg/ml) in 1 mM HCl. The peptide substrate, (AcFG)K-pNA was dissolved in DMSO to make a 5 mM solution. Separately, 3M NaCl and 20 mM EDTA+50 mM cysteine (pH 6.2) solutions were prepared with deionized water. In a 96-well plate, 5 μL substrate were mixed with 45 μL NaCl and 40 μL EDTA+cysteine solutions. Absorbance was measured at 405 nm to serve as a blank. Then, 5 μL of both enzyme solutions were added, and absorbance measurements were taken at pre-determined time points. All conditions were prepared and measured in quadruplicate.

Series [2] concerns trypsin and chymotrypsin. The series can be described thus: pNA release assay of CAAK(F)-diamino-pNA. The format is biochemical. The note with it: 2 mM, trypsin and/or chymotrypsin, 90 minutes, 37° C. Here is the method:
A stock solution of the CAAK(F)-diamino-pNA (SEQ ID NO: 4) was prepared in dimethyl sulfoxide (DMSO) to produce a 16.0 mg/mL solution. A 7.5 mg/mL stock solution of the trypsin was prepared in 50 mM NH4HCO3 buffer (pH=8.05). A 7.5 mg/mL stock solution of chymotrypsin was prepared in 50 mM NH4HCO3 buffer (pH=8.05).
A 96 well plate was used for monitoring the solutions at 405 nm using a plate reader. 20 μL of the peptide was combined with 62.0/66.6 μL of no enzyme, trypsin only, chymotrypsin only, or with both enzymes respectively. All solutions were diluted to a total volume of 200 μL using 50 mM NH4HCO3 (pH=8.05). Blanks were prepared by combining the enzymes with DMSO/buffer and their absorbances were subtracted from the cleavage conditions. Additionally, the residual signal from the peptide in the presence of no enzymes was also used as a blank and subtracted out from enzymatic conditions.

For series [3] the following is noted: for stability of the linker: over the entire pH range. Here is the method: The stabilities of these linkages were assessed by HPLC by monitoring the relative amount of Naltrexone versus the intact peptide-Naltrexone conjugate.
[4] abbreviates: 500 μM, caspase 8 for 24 hours before adding trypsin.

Entries after “also recorded” stand apart in the source; their conditions may differ. Read-outs that look alike come from different tables or passages of the source. Square brackets hold non-standard residues; d marks the D form. Side chains are listed from the residue outwards. Peptide text beside a SMILES is read from it. * marks the point of attachment. ξ: configuration not given here. X2 = CN(CCN*)C(=S)Oc1ccc2c3c1O[C@H]1C(=O)CC[C@@]4(O)[C@@H](C2)N(CC2CC2)CC[C@]314; X1 = CN(CCN*)C(=O)Oc1ccc2c3c1OC1C(=O)CCC4(O)C(C2)N(CC2CC2)CCC314; X3 = CC(=O)N[C@@H](CCCCN*)C(=O)Nc1ccc([N+](=O)[O-])cc1; X4 = CN(CCN*)C(=O)Oc1ccc([N+](=O)[O-])cc1; Trt = c1ccc(C(c2ccccc2)(c2ccccc2)*)cc1; pNA = O=[N+]([O-])c1ccc(N*)cc1; ξF = NC(Cc1ccccc1)C(=O)O; Boc = CC(C)(C)OC(=O)*; ξK = NCCCCC(N)C(=O)O; ξC = NC(CS)C(=O)O; ξA = CC(N)C(=O)O

Consider `CC(=O)N[C@@H](C)C(=O)N[C@@H](C)C(=O)N[C@@H](Cc1ccccc1)C(=O)NCCCC[C@H](NC(C)=O)C(=O)Nc1ccc([N+](=O)[O-])cc1` [(AcAAF)K-pNA], for which the “change in absorbance at 405 nm” value in the series on trypsin and chymotrypsin [1] (100 μM peptide, chymotrypsin only) was “no change in absorbance”. In the series on trypsin and chymotrypsin [1] (100 μM peptide, trypsin only), the “absorbance increase at 405 nm” value turned out to be 0.016±0.002 AU. Further, the “absorbance increase at 405 nm (pNA release)” value with trypsin and chymotrypsin [1] (100 μM substrate) is reported as 0.070±0.002 AU; with trypsin and chymotrypsin [1] (200 μM substrate), 0.147±0.002 AU; in the series with trypsin and chymotrypsin [1] (after five hours), 0.039±0.003 AU.

Take `CC(=O)N[C@@H](CCCCNC(=O)[C@H](CC(=O)O)NC(=O)[C@@H](NC(=O)[C@H](CCC(=O)O)NC(=O)[C@H](CC(=O)O)NC(C)=O)C(C)C)C(=O)Nc1ccc([N+](=O)[O-])cc1` [(AcDEVD)K-pNA]: the “absorbance increase at 405 nm” value in the series on caspase 3 and trypsin (125 μM substrate, first caspase-3 then trypsin, over 60 minutes) is recorded as 0.1±0.006 AU. Also, the “pNA release relative to release from commercial substrate AcDEVD-pNA” value with caspase 3 and trypsin (caspase 3 digestion) turned out to be 83%. For the same compound, the absorbance increase entry is “no absorbance increase” in the series on caspase 3 and trypsin (trypsin or caspase 3 only); “did not result in a significant absorbance increase” in the series on caspase 8 and trypsin (setting [4]).

For `CC(=O)N[C@@H](CCCCNC(=O)[C@H](CC(=O)O)NC(=O)[C@H](CCC(=O)O)NC(=O)[C@@H](NC(=O)[C@H](CC(=O)O)NC(C)=O)C(C)C)C(=O)Nc1ccc([N+](=O)[O-])cc1` [(AcDVED)K-pNA] (Ac-DVED-X3), the pNA release result in the series with caspase 3 and trypsin (trypsin and caspase 3) was “no pNA release”.

On to `CC(=O)N[C@@H](Cc1ccccc1)C(=O)NCC(=O)NCCCC[C@H](NC(C)=O)C(=O)Nc1ccc([N+](=O)[O-])cc1` [(AcFG)K-pNA], for which the absorbance increase result in the series with papain and trypsin (each enzyme separately (papain only or trypsin only)) is recorded as “no absorbance increase”. The pNA release entry with papain and trypsin (papain and trypsin, varying substrate concentrations) is reported as “substrate dependent”.

In the case of `CC[C@H](C)[C@H](NC(C)=O)C(=O)N[C@@H](CCC(=O)O)C(=O)N1CCC[C@H]1C(=O)N[C@@H](CC(=O)O)C(=O)NCCCC[C@H](NC(C)=O)C(=O)Nc1ccc([N+](=O)[O-])cc1` [(AcIEPD)K-pNA] (Ac-IEPD-X3), the absorbance increase entry with caspase 8 and trypsin (setting [4]) is “did not result in a significant absorbance increase”; in the series on caspase 8 and trypsin (caspase 8 and trypsin, initial experiments) it was “little to no absorbance increase”.

As for `CC(=O)NC(CS)C(=O)NC(C)C(=O)NC(C)C(=O)NC(CCCCNC(=O)C(N)Cc1ccccc1)C(=O)NCCN(C)C(=O)Oc1ccc([N+](=O)[O-])cc1` (stereo not shown) [CAAK(F)-diamino-pNA] (Ac-CAAK(Phe)-X4; configuration not given here), in the series with trypsin and chymotrypsin [2], the “theoretical pNA released” value was found to be 55%.

On to `CC(=O)NC(CSC(c1ccccc1)(c1ccccc1)c1ccccc1)C(=O)NC(C)C(=O)NC(C)C(=O)NC(CCCCNC(=O)C(Cc1ccccc1)NC(=O)OC(C)(C)C)C(=O)NCCN(C)C(=O)Oc1ccc2c3c1OC1C(=O)CCC4(O)C(C2)N(CC2CC2)CCC314` (stereo not shown) [NPC] (Ac-C(Trt)AAK([Phe-Boc])-X1; configuration not given here), for which the “Percent Degradation, t = 0.5 hr” value in series [3] (conjugate without pH buffer) was determined as 0%; in series [3] (pH 2), 6.00%; in series [3] (pH 4), 3.50%; in series [3] (pH 7) it was 1.50%; in series [3] (pH 9), 5.56%; in series [3] (pH 12), 7.03%. Also, the “Percent Degradation, t = 24 hr” value in series [3] (conjugate without pH buffer) is given as 0%; in series [3] (pH 2), 12.30%; in series [3] (pH 4), 2.89%; in series [3] (pH 7) it was 3.62%; in series [3] (pH 9), 5.17%; in series [3] (pH 12), 6.94%. Moreover, the “stability of the linker” value in series [3] is on record as “very good stability”.

Consider `CC(=O)NC(CS)C(=O)NC(C)C(=O)NC(C)C(=O)NC(CCCCNC(=O)C(N)Cc1ccccc1)C(=O)NCCN(C)C(=S)Oc1ccc2c3c1O[C@H]1C(=O)CC[C@@]4(O)[C@@H](C2)N(CC2CC2)CC[C@]314` (stereo partly shown) [NPT] (Ac-[ξC][ξA][ξA][ξK](ξF)-X2), for which the “Percent Degradation, t = 0.5 hr” value in series [3] (conjugate without pH buffer) turned out to be 0.51%; in series [3] (pH 2), 3.23%; in series [3] (pH 4), 1.67%; in series [3] (pH 7) it was 3.22%; in series [3] (pH 9) it was 4.69%; in series [3] (pH 12) it was 5.15%. The “Percent Degradation, t = 24 hr” value in series [3] (conjugate without pH buffer) was found to be 2.90%; in series [3] (pH 2) it was 4.10%; in series [3] (pH 4), 2.04%; in series [3] (pH 7), 3.59%; in series [3] (pH 9), 3.37%; in series [3] (pH 12), 6.72%. The “stability of the linker” value in series [3] is reported as “more stable than the carbamate linker”.

Take “AcDEVD-pNA: commercially available single enzyme caspase substrate (SEQ ID NO: 7)”: the “cleavage by caspase 8 (absorbance increase)” value in the series with caspase 8 and trypsin is listed as “cleaved as expected; also recorded: significant absorbance increase over time”.

Turning to “AcIEPD-pNA: commercially available single enzyme caspase substrate (SEQ ID NO: 8) (Ac-IEPD-pNA; SMILES CC[C@H](C)[C@H](NC(C)=O)C(=O)N[C@@H](CCC(=O)O)C(=O)N1CCC[C@H]1C(=O)N[C@@H](CC(=O)O)C(=O)Nc1ccc([N+](=O)[O-])cc1)”, the “cleavage by caspase 8 (absorbance increase)” value with caspase 8 and trypsin is recorded as “cleaved as expected; also recorded: significant absorbance increase over time”.

Values taken from patent US11879019B2, “Dual-enzyme responsive peptides” (THE REGENTS OF THE UNIVERSITY OF CALIFORNIA, priority 2016, dated 2024).
